From patent US20140194361A1 (published 2014)
No end group written: not given here.

Biological target: α5β1 integrin receptor on primary mesangial cells
Test: cell-based or functional assay

CGRGDSP (also: cyclic GRGDSP part, ring closure not given here) [modified CGRGDSP peptide (D-peptide)]
inhibition of MC adhesion to fibronectin-coated plates, enhanced potency of D- vs. E-control peptide compared to GRGDSP, at 200 µg/ml: 2.4 fold | inhibition of MC adhesion to fibronectin-coated plates, enhanced potency of D- vs. E-control peptide compared to GRGDSP, at 400 µg/ml: 2.8 fold | inhibition of mesangial cell binding to FN-coated plates, potency against GRGDSP: ~3 fold more potent than GRGDSP
